Assay results from US20230227561A1 (REGENTS OF THE UNIVERSITY OF MINNESOTA, published 2023).

Legend:
[1] = molecular target: T1, canine CD16A on dog peripheral blood leukocytes / PBMC (canine, UniProt E2RP87 1-249); assay: flow cytometry, FITC protein at 80 nM, PBMC of dog Never
T1 construct: Native protein on primary dog cells of various breeds
T1 sequence: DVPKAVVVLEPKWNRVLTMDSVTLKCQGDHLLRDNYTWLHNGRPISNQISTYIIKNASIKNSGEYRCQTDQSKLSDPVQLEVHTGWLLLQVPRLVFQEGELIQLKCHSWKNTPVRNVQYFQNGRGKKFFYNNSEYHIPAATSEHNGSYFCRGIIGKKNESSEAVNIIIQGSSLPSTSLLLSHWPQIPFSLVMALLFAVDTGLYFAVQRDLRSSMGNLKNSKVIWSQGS
Description: (§1) To test the binding of the anti-CD16 domain, binding was evaluated on canine peripheral blood mononuclear cells (PBMC) that contained canine NK cells, T cells, B cells, and monocytes (Table 2). A single batch of 1615B7H3 TriKE (SEQ ID NO:56) was directly labeled with FITC fluorochrome and tested. The binding of the anti-CD16 fragment alone (anti-CD16-FITC) was tested as a positive control. Binding of an anti-B7H3 fragment alone (antiB7H3-FITC) was tested as a negative control.

[2] = molecular target: T1, canine CD16A on dog peripheral blood …; assay: flow cytometry, FITC protein at 400 nM, PBMC of dog Never
Description: as §1

[3] = molecular target: T1, canine CD16A on dog peripheral blood …; assay: flow cytometry, FITC protein at 2000 nM, PBMC of dog Never
Description: as §1

[4] = molecular target: T1, canine CD16A on dog peripheral blood …; assay: flow cytometry, FITC protein at 80 nM, PBMC of dog Maverick
Description: as §1

[5] = molecular target: T1, canine CD16A on dog peripheral blood …; assay: flow cytometry, FITC protein at 400 nM, PBMC of dog Maverick
Description: as §1

[6] = molecular target: T1, canine CD16A on dog peripheral blood …; assay: flow cytometry, FITC protein at 2000 nM, PBMC of dog Maverick
Description: as §1

[7] = molecular target: T1, canine CD16A on dog peripheral blood …; assay: flow cytometry, FITC protein at 80 nM, dog PBMC treated with IL-15 for 6 days
Description: as §1

[8] = molecular target: T1, canine CD16A on dog peripheral blood …; assay: flow cytometry, FITC protein at 400 nM, dog PBMC treated with IL-15 for 6 days
Description: as §1

[9] = molecular target: T1, canine CD16A on dog peripheral blood …; assay: flow cytometry, FITC protein at 2000 nM, dog PBMC treated with IL-15 for 6 days
Description: as §1

[10] = molecular target: T1, canine CD16A on dog peripheral blood …; assay: flow cytometry on dog peripheral blood leukocytes (FIG. 4A)
Description: Flow cytometry was used to examine the expression patterns of CD16A and CD64 by dog peripheral blood leukocytes. The general leukocyte populations of polymorphonuclear cells (PMNs), monocytes, and lymphocytes were identified based on their characteristic forward and side light-scattering and by their expression of well characterized markers, including CD4 (neutrophils and lymphocyte), CD14 (monocytes), and CD5 (T cells) (FIG. 4A). The anti-canine CD16A clone 4A5 stained a subset of monocytes and lymphocytes, and for some dogs it marginally stained PMNs and/or a small subset of cells in this population (FIG. 4A). This staining pattern was consistent for all the anti-canine CD16 mAbs generated, which had distinct complementarity-determining region nucleotide sequences from 4A5. […]
For cell staining, nonspecific antibody binding sites were blocked for 30 min using 25% canine serum and 25% FBS in PBS buffer (without Ca⁺² and Mg⁺²) (Lonza Group AG, Basel, Switzerland) prior to their staining with antibodies. All cell staining was analyzed on a FACSCelesta instruments (BD Biosciences, Franklin Lakes, N.J.), as previously described (Snyder et al., Vet Immunol Immunopathol 231:110162, 2021). Briefly, for controls, fluorescence minus one was used as well as appropriate isotype-matched antibodies. […]

[11] = molecular target: T2, recombinant intact canine CD64 with an N-terminus HA-tag, expressed on NK-92 cells (canine); assay: flow cytometry on NK-92 cCD16A and NK-92 cCD64 cells (FIG. 3A)
T2 construct: also called NK-92 canine CD64 cells; NK-92 cCD64; not shown: N-terminal HA tag from the pDisplay cassette
T2 chain: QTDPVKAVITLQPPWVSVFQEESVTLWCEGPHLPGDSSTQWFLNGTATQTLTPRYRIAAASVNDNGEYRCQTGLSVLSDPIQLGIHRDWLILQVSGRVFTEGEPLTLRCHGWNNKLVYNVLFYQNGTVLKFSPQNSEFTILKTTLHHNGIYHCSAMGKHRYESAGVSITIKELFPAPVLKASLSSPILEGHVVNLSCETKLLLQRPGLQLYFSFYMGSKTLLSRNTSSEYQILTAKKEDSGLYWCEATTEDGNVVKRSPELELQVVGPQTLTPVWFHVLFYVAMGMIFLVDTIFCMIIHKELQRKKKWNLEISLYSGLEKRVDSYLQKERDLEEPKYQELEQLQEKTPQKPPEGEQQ

[12] = molecular target: T3, B7-H3 on canine osteosarcoma OSCA78 cells (canine); assay: flow cytometry on OSCA78 cells, 16 nM, experiment 2
T3 construct: whole, on cells

[13] = molecular target: T3, B7-H3 on canine osteosarcoma OSCA78 …; assay: flow cytometry on OSCA78 cells, 80 nM, experiment 1
[14] = molecular target: T3, B7-H3 on canine osteosarcoma OSCA78 …; assay: flow cytometry on OSCA78 cells, 80 nM, experiment 2
[15] = molecular target: T3, B7-H3 on canine osteosarcoma OSCA78 …; assay: flow cytometry on OSCA78 cells, 400 nM, experiment 1
[16] = molecular target: T3, B7-H3 on canine osteosarcoma OSCA78 …; assay: flow cytometry on OSCA78 cells, 400 nM, experiment 2
[17] = molecular target: T3, B7-H3 on canine osteosarcoma OSCA78 …; assay: flow cytometry on OSCA78 cells, 2000 nM, experiment 1

B1: anti-canine CD16 antibody fragment alone (other)
VL: MEQILLTQSPAIMSASPGEKVTMTCSASSSVGYMHWYQQKPGSSPKPWIYDTSDLASGFPARFSGSRSGTSYSLIISSMEAEDAATYYCHQRSFYPYTFGGGTKLEIK
VH: EVQLQQSGAELVRSGASVKLSCTASGFNIKDYYMHWVKQRPEQGLEWIGWLDPENGDTVYAPKFQGRATMTADTSSNTAYLHLSSLTSEDTAVYYCNALVYSLLGQDYWGQGTTLTVSS
modifications: FITC-labelled in the PBMC assay (sites not given)
notes: also called anti-CD16; anti-CD16-FITC
binding (flow cytometry read-out, unit not given) [1]: 3.7 | binding (flow cytometry read-out, unit not given) [2]: 8.8 | binding (flow cytometry read-out, unit not given) [3]: 23.8 | binding (flow cytometry read-out, unit not given) [4]: 10.1 | binding (flow cytometry read-out, unit not given) [5]: 26.5 | binding (flow cytometry read-out, unit not given) [6]: 43.6 | binding (flow cytometry read-out, unit not given) [7]: 6.2 | binding (flow cytometry read-out, unit not given) [8]: 15.3 | binding (flow cytometry read-out, unit not given) [9]: 35.8

B2: anti-canine CD16A mAb (clone 4A5) (antibody, IgG1)
VH: EVQLQQSGAELVRSGASVKLSCTASGFNIKDYYMHWVKQRPEQGLEWIGWLDPENGDTVYAPKFQGRATMTADTSSNTAYLHLSSLTSEDTAVYYCNALVYSLLGQDYWGQGTTLTVSSAKTTPPSVYPLAPGSAAQTNSMVTLGCLVKGYFPEPVTVTWNSGSLSSGVHTFPAVLQSDLYTLSSSVTVPSS
VL: QILLTQSPAIMSASPGEKVTMTCSASSSVGYMHWYQQKPGSSPKPWIYDTSDLASGFPARFSGSRSGTSYSLIISSMEAEDAATYYCHQRSFYPYTFGGGTKLEIKRADAAPTVSIFPPSSEQLTSGGASVVCFLNNFYPKDINVKWKIDGSERQNGVLNSWTDQDSKDSTYSMSSTLTLTK
notes: also called anti-CD16A mAb clone 4A5; anti-canine CD16 (clone 4A5)
binding result [10]: binds | binding result [11]: no binding

B3: anti-B7H3 antibody fragment alone (VHH)
VHH: QVQLVESGGGLVQPGGSLRLSCAASGFTFSSYWMYWVRQTPGKGLEWVSTINRDGSATWYADSVKGRFTISRDNAKNTGYLQMNSLKPDDTAVYYCVSDPDNYSSDEMVPYWGQGTQVTVSS
modifications: FITC-labelled in the PBMC assay (sites not given)
notes: The kind VHH is inferred from the single variable domain and the label 1615CAMB7H3; also called antiB7H3-FITC; anti-B7H3 fragment
binding (flow cytometry read-out, unit not given) [12]: 2.8 | binding (flow cytometry read-out, unit not given) [13]: 64 | binding (flow cytometry read-out, unit not given) [14]: 42.1 | binding (flow cytometry read-out, unit not given) [15]: 98.8 | binding (flow cytometry read-out, unit not given) [16]: 93.7 | binding (flow cytometry read-out, unit not given) [17]: 99.8
